Laboratory results taken from patent US5866538A, “Insulin preparations containing NaCl” (Novo Nordisk A/S, priority 1996, dated 1999).

Legend:
Type in all cases: physicochemical
[1] = Stability tests of Asp^B28 human insulin preparations in Penfill cartridges, varying NaCl (Example III); details: phosphate 13.5 mM, pH 7.40
Protocol: 369.4 mg Asp^B28 human insulin was dissolved in water by adding 1.6 ml 0.2N HCl and 49 μl zinc chloride solution (40 mg Zn/ml). 40 g of a solution containing 40 mg/g glycerol, 3.75 mg/g phenol and 4.30 mg/g m-cresol was added to the solution while mixing. 10 g of a solution containing 24.0 mg/g disodium phosphate dihydrate and 11 μl/g 2N sodium hydroxide was added while mixing. Finally varying amounts (0 g to 4.38 g) of a solution containing 40 mg/g sodium chloride were added while mixing up to a sodium chloride concentration mentioned in Table 4. pH was adjusted to 7.40±0.05 and water added up to 100 ml. The Asp^B28 Human insulin preparations were introduced into Penfill® cartridges and subjected to stability tests at 25° C. and 37° C.

[2] = Stability of Asp^B28 human insulin solutions with varying Zn, NaCl and pH (Example I); details: 4 weeks at 37° C.
Protocol: Solutions containing 100 U/ml Asp^B28 human insulin, 2.6 mg/ml phenol, 16 mg/ml glycerol and varying amounts of Zn and sodium chloride were prepared. The pH was varied in the range of 7.2 to 7.5.

[3] = Stability tests of Asp^B28 human insulin preparations in Penfill cartridges, varying NaCl (Example II); details: phosphate 13.5 mM, 19.6 μg Zn/100 U insulin, pH 7.4
Protocol: 370.4 mg AspB28 human insulin was dissolved in water by adding 1.6 ml 0.2N HCl and 49 μl zinc chloride solution (40 mg Zn/ml). 40 g of a solution containing 40 mg/ml glycerol, 3.75 mg/g phenol and 4.30 mg/g m-cresol was added to the insulin solution while mixing. 20 g of a solution containing a) 12.0 mg/g disodium phosphate dihydrate+5 μl/g 2N sodium hydroxide, b) 12.0 mg/g disodium phosphate dihydrate+5 μl/g 2N sodium hydroxide+5 mg/g sodium chloride or c) 12.0 mg/g disodium phosphate dihydrate+5 μl/g 2N sodium hydroxide+10 mg/g sodium chloride was added while mixing. pH was adjusted to pH 7.40±0.05 and water added up to 100 ml. The Asp^B28 Human insulin preparations were introduced into Penfill® cartridges and subjected to stability tests at 25° C. and 37° C. The stability data obtained at the two different temperatures and at a phosphate concentration of 13.5 mM, 19.6 μg Zn/100 U insulin and pH=7.4 are summarized in Table 2.

[4] = 6 weeks at 37° C., NaCl added 5 mM, total Cl^- 8.5 mM
[5] = 6 weeks at 37° C., NaCl added 12.5 mM, total Cl^- 16.3 mM
[6] = 6 weeks at 37° C., NaCl added 20 mM, total Cl^- 23.8 mM
[7] = 6 weeks at 37° C., NaCl added 25 mM, total Cl^- 28.8 mM
[8] = 6 weeks at 37° C., NaCl added 30 mM, total Cl^- 33.8 mM
[9] = 12 weeks at 25° C., NaCl added 0 mM, total Cl^- 3.8 mM
[10] = 12 weeks at 25° C., NaCl added 5 mM, total Cl^- 8.5 mM
[11] = 12 weeks at 25° C., NaCl added 12.5 mM, total Cl^- 16.3 mM
[12] = 12 weeks at 25° C., NaCl added 20 mM, total Cl^- 23.8 mM
[13] = 12 weeks at 25° C., NaCl added 25 mM, total Cl^- 28.8 mM
[14] = 12 weeks at 25° C., NaCl added 30 mM, total Cl^- 33.8 mM
[15] = 13.1 μg Zn/100 U insulin, NaCl 0 mM, pH 7.2
[16] = 13.1 μg Zn/100 U insulin, NaCl 0 mM, pH 7.5
[17] = 13.1 μg Zn/100 U insulin, NaCl 5 mM, pH 7.2
[18] = 13.1 μg Zn/100 U insulin, NaCl 5 mM, pH 7.5
[19] = 13.1 μg Zn/100 U insulin, NaCl 20 mM, pH 7.2
[20] = 13.1 μg Zn/100 U insulin, NaCl 20 mM, pH 7.5
[21] = 16.3 μg Zn/100 U insulin, NaCl 0 mM, pH 7.2
[22] = 16.3 μg Zn/100 U insulin, NaCl 0 mM, pH 7.4
[23] = 16.3 μg Zn/100 U insulin, NaCl 5 mM, pH 7.2
[24] = 16.3 μg Zn/100 U insulin, NaCl 5 mM, pH 7.5
[25] = 16.3 μg Zn/100 U insulin, NaCl 20 mM, pH 7.2
[26] = 16.3 μg Zn/100 U insulin, NaCl 20 mM, pH 7.5
[27] = 19.6 μg Zn/100 U insulin, NaCl 0 mM, pH 7.2
[28] = 19.6 μg Zn/100 U insulin, NaCl 0 mM, pH 7.5
[29] = 19.6 μg Zn/100 U insulin, NaCl 5 mM, pH 7.2
[30] = 19.6 μg Zn/100 U insulin, NaCl 5 mM, pH 7.5
[31] = 19.6 μg Zn/100 U insulin, NaCl 20 mM, pH 7.2
[32] = 19.6 μg Zn/100 U insulin, NaCl 20 mM, pH 7.5
[33] = 22.8 μg Zn/100 U insulin, NaCl 0 mM, pH 7.2
[34] = 22.8 μg Zn/100 U insulin, NaCl 0 mM, pH 7.5
[35] = 22.8 μg Zn/100 U insulin, NaCl 5 mM, pH 7.2
[36] = 22.8 μg Zn/100 U insulin, NaCl 5 mM, pH 7.5
[37] = 22.8 μg Zn/100 U insulin, NaCl 20 mM, pH 7.2
[38] = 22.8 μg Zn/100 U insulin, NaCl 20 mM, pH 7.5
[39] = 8 months at 25° C., NaCl added 0 mM, total conc. of Cl^- 4.4
[40] = 8 months at 25° C., NaCl added 17 mM, total conc. of Cl^- 20.8
[41] = 8 months at 25° C., NaCl added 34 mM, total conc. of Cl^- 37.8
[42] = 8 weeks at 37° C., NaCl added 0 mM, total conc. of Cl^- 4.4
[43] = 8 weeks at 37° C., NaCl added 17 mM, total conc. of Cl^- 20.8
[44] = 8 weeks at 37° C., NaCl added 34 mM, total conc. of Cl^- 37.8

In the case of Asp^B28 human insulin, the “Asp^B28 Des-amido insulins formed” value [1, 4] is reported as 4.1%, the “Di- & polymers formed” value [1, 4] is reported as 0.99% and the “Asp^B28 Des-amido insulins formed” value [1, 5] is reported as 3.6%. For the same substance, the “Di- & polymers formed” value [1, 5] was 0.92%, the “Asp^B28 Des-amido insulins formed” value [1, 6] was 3.0% and the “Di- & polymers formed” value [1, 6] was 0.87%. The “Asp^B28 Des-amido insulins formed” value [1, 7] was 3.0%, the “Di- & polymers formed” value [1, 7] was 0.82% and the “Asp^B28 Des-amido insulins formed” value [1, 8] was 2.8%. The “Di- & polymers formed” value [1, 8] was 0.80%, the “Asp^B28 Des-amido insulins formed” value [1, 9] was 2.7% and the “Di- & polymers formed” value [1, 9] was 0.36%. The “Asp^B28 Des-amido insulins formed” value [1, 10] was 2.3%, the “Di- & polymers formed” value [1, 10] was 0.32% and the “Asp^B28 Des-amido insulins formed” value [1, 11] was 1.8%. The “Di- & polymers formed” value [1, 11] was 0.39%, the “Asp^B28 Des-amido insulins formed” value [1, 12] was 1.7% and the “Di- & polymers formed” value [1, 12] was 0.39%. The “Asp^B28 Des-amido insulins formed” value [1, 13] was 1.8%, the “Di- & polymers formed” value [1, 13] was 0.38% and the “Asp^B28 Des-amido insulins formed” value [1, 14] was 1.7%. The “Di- & polymers formed” value [1, 14] was 0.38%, the “Asp^B28 Des-amido insulins formed” value [2, 15] was 3.44% and the “Di- & polymers formed” value [2, 15] was 1.35%. For the same substance, the “Asp^B28 Des-amido insulins formed” value [2, 16] was 3.57%, the “Di- & polymers formed” value [2, 16] was 1.36% and the “Asp^B28 Des-amido insulins formed” value [2, 17] was 3.48%. For the same substance, the “Di- & polymers formed” value [2, 17] was 1.53%, the “Asp^B28 Des-amido insulins formed” value [2, 18] was 3.31% and the “Di- & polymers formed” value [2, 18] was 1.49%. For the same substance, the “Asp^B28 Des-amido insulins formed” value [2, 19] was 2.54%, the “Di- & polymers formed” value [2, 19] was 1.72% and the “Asp^B28 Des-amido insulins formed” value [2, 20] was 2.47%. The “Di- & polymers formed” value [2, 20] was 1.26%, the “Asp^B28 Des-amido insulins formed” value [2, 21] was 3.35% and the “Di- & polymers formed” value [2, 21] was 1.44%. For the same substance, the “Asp^B28 Des-amido insulins formed” value [2, 22] was 3.41%, the “Di- & polymers formed” value [2, 22] was 1.46% and the “Asp^B28 Des-amido insulins formed” value [2, 23] was 1.74%. The “Di- & polymers formed” value [2, 23] was 0.95%, the “Asp^B28 Des-amido insulins formed” value [2, 24] was 2.58% and the “Di- & polymers formed” value [2, 24] was 1.38%. The “Asp^B28 Des-amido insulins formed” value [2, 25] was 1.91%, the “Di- & polymers formed” value [2, 25] was 1.05% and the “Asp^B28 Des-amido insulins formed” value [2, 26] was 2.00%. The “Di- & polymers formed” value [2, 26] was 1.31%, the “Asp^B28 Des-amido insulins formed” value [2, 27] was 3.07% and the “Di- & polymers formed” value [2, 27] was 1.57%. For the same substance, the “Asp^B28 Des-amido insulins formed” value [2, 28] was 2.85%, the “Di- & polymers formed” value [2, 28] was 1.80% and the “Asp^B28 Des-amido insulins formed” value [2, 29] was 2.71%. For the same substance, the “Di- & polymers formed” value [2, 29] was 1.36%, the “Asp^B28 Des-amido insulins formed” value [2, 30] was 2.24% and the “Di- & polymers formed” value [2, 30] was 1.46%. The “Asp^B28 Des-amido insulins formed” value [2, 31] was 1.56%, the “Di- & polymers formed” value [2, 31] was 1.15% and the “Asp^B28 Des-amido insulins formed” value [2, 32] was 1.68%. For the same substance, the “Di- & polymers formed” value [2, 32] was 1.13%, the “Asp^B28 Des-amido insulins formed” value [2, 33] was 2.71% and the “Di- & polymers formed” value [2, 33] was 2.52%. For the same substance, the “Asp^B28 Des-amido insulins formed” value [2, 34] was 2.34%, the “Di- & polymers formed” value [2, 34] was 1.45% and the “Asp^B28 Des-amido insulins formed” value [2, 35] was 2.18%. The “Di- & polymers formed” value [2, 35] was 1.95%, the “Asp^B28 Des-amido insulins formed” value [2, 36] was 1.90% and the “Di- & polymers formed” value [2, 36] was 1.19%. The “Asp^B28 Des-amido insulins formed” value [2, 37] was 1.51%, the “Di- & polymers formed” value [2, 37] was 1.05% and the “Asp^B28 Des-amido insulins formed” value [2, 38] was 1.46%. For the same substance, the “Di- & polymers formed” value [2, 38] was 1.09%, the “Asp^B28 Des-amido insulins formed” value [3, 39] was 6.4% and the “Di- & polymers formed” value [3, 39] was 1.0%. The “Asp^B28 Des-amido insulins formed” value [3, 40] was 4.1%, the “Di- & polymers formed” value [3, 40] was 0.8% and the “Asp^B28 Des-amido insulins formed” value [3, 41] was 3.7%. For the same substance, the “Di- & polymers formed” value [3, 41] was 0.8%, the “Asp^B28 Des-amido insulins formed” value [3, 42] was 7.0% and the “Di- & polymers formed” value [3, 42] was 1.86%. For the same substance, the “Asp^B28 Des-amido insulins formed” value [3, 43] was 4.2%, the “Di- & polymers formed” value [3, 43] was 1.29% and the “Asp^B28 Des-amido insulins formed” value [3, 44] was 3.5%. For the same substance, the “Di- & polymers formed” value [3, 44] was 1.07%.
